The record followed here is patent publication US20220332795A1 (ARO BIOTHERAPEUTICS, published 2022).

Where a chain is given by its changes, count along the chain named.

B1: SEQ ID NO 229 (designed binder, not shown: small tags and cut ends)
chain: MLPAPKNLVVSRVTEDSARLSWTAPDAAFDSFYIAYAEPRPDGEAIQLLVPGSERSYDLTGLKPGTEYSVLIHGVKGGLLSSPLVAHFTT
B2: SEQ ID NO 260 (designed binder, not shown: small tags and cut ends)
chain: B1 chain with Q47H, L49R, S69N, L71T, H73Q, L79F, L80P, S82M, V85S, H87I
B3: SEQ ID NO 242 (designed binder, not shown: small tags and cut ends)
chain: B1 chain with V85Y, H87A
B4: SEQ ID NO 259 (designed binder, not shown: small tags and cut ends)
chain: B1 chain with L49G, V85L, H87V
B5: SEQ ID NO 249 (designed binder, not shown: small tags and cut ends)
chain: B1 chain with Q47V, L49E, V85H, H87N
B6: SEQ ID NO 267 (designed binder, not shown: small tags and cut ends)
chain: B1 chain with Q47G, L49W, H87Y
B7: SEQ ID NO 236 (designed binder, not shown: small tags and cut ends)
chain: B1 chain with Q47L, L49Q, V85D, H87E
B8: SEQ ID NO 247 (designed binder, not shown: small tags and cut ends)
chain: B1 chain with Q47L, L49H, V85R, H87S
B9: SEQ ID NO 230 (designed binder, not shown: small tags and cut ends)
chain: B1 chain with Q47W, H87F
B10: SEQ ID NO 261 (designed binder, not shown: small tags and cut ends)
chain: B1 chain with Q47L, L49Q, V85I, H87K
B11: SEQ ID NO 234 (designed binder, not shown: small tags and cut ends)
chain: B1 chain with Q47V, L49V, V85S, H87I
B12: SEQ ID NO 264 (designed binder, not shown: small tags and cut ends)
chain: B1 chain with Q47N, L49S, V85D, H87Y
B13: SEQ ID NO 262 (designed binder, not shown: small tags and cut ends)
chain: B1 chain with Q47V, L49H, V85Q, H87I
B14: SEQ ID NO 233 (designed binder, not shown: small tags and cut ends)
chain: B1 chain with L49F, V85K, H87Y
B15: SEQ ID NO 256 (designed binder, not shown: small tags and cut ends)
chain: B1 chain with L49T, V85H, H87Y
B16: SEQ ID NO 258 (designed binder, not shown: small tags and cut ends)
chain: B1 chain with Q47L, L49E, H87F
B17: SEQ ID NO 240 (designed binder, not shown: small tags and cut ends)
chain: B1 chain with Q47S, L49S, V85H, H87K
B18: SEQ ID NO 265 (designed binder, not shown: small tags and cut ends)
chain: B1 chain with Q47V, L49E, V85T, H87S
B19: SEQ ID NO 246 (designed binder, not shown: small tags and cut ends)
chain: B1 chain with L49H, V85Y, H87F
B20: SEQ ID NO 237 (designed binder, not shown: small tags and cut ends)
chain: B1 chain with Q47V, L49A, V85Y, H87S
B21: SEQ ID NO 255 (designed binder, not shown: small tags and cut ends)
chain: MLPAPKNLVVSRVTEDSARLSWTAPDAAFDSFFIGYLEPQPPGEAILLFVPGSERSYDLTGLKPGTEYNVTIQGVKGGFPSTPLSASFTT
B22: SEQ ID NO 253 (designed binder, not shown: small tags and cut ends)
chain: B1 chain with Q47I, L49H, V85D, H87Y
B23: SEQ ID NO 239 (designed binder, not shown: small tags and cut ends)
chain: B1 chain with L49V, V85Y, H87I
B24: SEQ ID NO 257 (designed binder, not shown: small tags and cut ends)
chain: B1 chain with L49G, V85R, H87Y
B25: SEQ ID NO 252 (designed binder, not shown: small tags and cut ends)
chain: B1 chain with Q47V, L49H, V85D, H87F
B26: SEQ ID NO 266 (designed binder, not shown: small tags and cut ends)
chain: B1 chain with Q47R, L49Q, V85G, H87S
B27: SEQ ID NO 263 (designed binder, not shown: small tags and cut ends)
chain: B1 chain with Q47A, L49V, V85A, H87N
B28: SEQ ID NO 245 (designed binder, not shown: small tags and cut ends)
chain: B1 chain with Q47A, L49W, H87S
B29: SEQ ID NO 250 (designed binder, not shown: small tags and cut ends)
chain: B1 chain with Q47L, L49R, V85Y, H87K
B30: SEQ ID NO 244 (designed binder, not shown: small tags and cut ends)
chain: B1 chain with Q47S, L49Q, V85G
B31: SEQ ID NO 254 (designed binder, not shown: small tags and cut ends)
chain: B1 chain with Q47L, L49A, V85S, H87K
B32: SEQ ID NO 248 (designed binder, not shown: small tags and cut ends)
chain: B1 chain with Q47W, L49G, V85H, H87T

The first assay deals with T1, human CD71 extracellular domain (human, UniProt P02786 89-760, biotinylated).
T1 construct: extracellular domain; also called hCD71; huCD71 ECD
T1 sequence (P02786 other isoform, or with tags, fused parts or gaps): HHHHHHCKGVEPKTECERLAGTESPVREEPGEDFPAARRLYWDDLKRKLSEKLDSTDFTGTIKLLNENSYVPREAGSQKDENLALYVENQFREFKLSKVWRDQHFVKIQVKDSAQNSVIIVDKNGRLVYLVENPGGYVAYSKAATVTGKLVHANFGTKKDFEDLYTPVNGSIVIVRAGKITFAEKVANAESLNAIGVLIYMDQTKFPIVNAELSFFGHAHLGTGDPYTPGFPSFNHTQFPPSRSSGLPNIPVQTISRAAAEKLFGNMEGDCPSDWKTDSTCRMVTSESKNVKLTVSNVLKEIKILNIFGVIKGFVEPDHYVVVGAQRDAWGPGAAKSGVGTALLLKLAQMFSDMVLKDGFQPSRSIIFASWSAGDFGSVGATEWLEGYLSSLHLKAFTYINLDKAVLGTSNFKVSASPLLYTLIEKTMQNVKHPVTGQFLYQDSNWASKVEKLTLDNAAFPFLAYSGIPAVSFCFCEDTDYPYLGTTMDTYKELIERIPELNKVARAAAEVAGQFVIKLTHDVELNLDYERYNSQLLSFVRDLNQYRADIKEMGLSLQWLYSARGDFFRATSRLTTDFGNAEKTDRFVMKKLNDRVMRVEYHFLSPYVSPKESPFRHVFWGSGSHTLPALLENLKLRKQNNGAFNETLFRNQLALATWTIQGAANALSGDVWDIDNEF
The assay can be described thus: solution ELISA screen, signal ratio to HSA control. (An ELISA detects its analyte on a solid surface through an enzyme-linked reagent.)
Turning to B1, the “hCD71:HSA” value amounted to 93.4 ratio.
As for B2, the “hCD71:HSA” value stood at 146 ratio.
For B3, the “hCD71:HSA” value stood at 31.9 ratio.
On to B4, for which the “hCD71:HSA” value was found to be 49.7 ratio.
As for B5, the “hCD71:HSA” value worked out at 205 ratio.
On the same count and under the same terms, the same measure for B6: 19.2 ratio; for B7: 262 ratio.
Consider B8, for which the “hCD71:HSA” value stood at 226 ratio.
In the case of B9, the “hCD71:HSA” value turned out to be 34.4 ratio.
On the same count and under the same terms, under B10 stands 13.7 ratio; under B11, 216 ratio.
As for B12, the “hCD71:HSA” value came out at 15.1 ratio.
With B13, the “hCD71:HSA” value was found to be 128 ratio.
With B14, the “hCD71:HSA” value is 35.1 ratio.
Take B15: the “hCD71:HSA” value is 27.2 ratio.
For B16, the “hCD71:HSA” value was determined as 204 ratio.
As for B17, the “hCD71:HSA” value was 33.9 ratio.
Take B18: the “hCD71:HSA” value worked out at 188 ratio.
Consider B19, for which the “hCD71:HSA” value turned out to be 21.3 ratio.
As for B20, the “hCD71:HSA” value is 165 ratio.
Consider B21, for which the “hCD71:HSA” value turned out to be 49.1 ratio.
With B22, the “hCD71:HSA” value is 92 ratio.
The same measure, in the same setting: under B23 stands 26.5 ratio; under B24, 26.9 ratio; under B25, 59.6 ratio.
The same measure, in the same setting: the same measure for B26: 11.6 ratio; for B27: 24.5 ratio; for B28: 41.9 ratio.
As to B29, the “hCD71:HSA” value came out at 15 ratio.
In the case of B30, the “hCD71:HSA” value worked out at 97.1 ratio.
Take B31: the “hCD71:HSA” value worked out at 104 ratio.
Still for that read-out and setting: the same measure for B32: 22.2 ratio.

In a further assay the target is T2, CD71 apical domain (human, UniProt P02786 189-383, limits assumed).
T2 construct: domain: apical domain
T2 sequence (P02786 189-383 limits assumed): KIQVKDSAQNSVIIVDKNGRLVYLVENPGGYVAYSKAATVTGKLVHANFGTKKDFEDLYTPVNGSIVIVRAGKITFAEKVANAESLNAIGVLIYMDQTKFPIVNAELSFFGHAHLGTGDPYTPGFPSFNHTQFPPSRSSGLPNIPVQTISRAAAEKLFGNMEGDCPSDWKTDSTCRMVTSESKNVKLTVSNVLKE
Briefly: solution ELISA screen, signal ratio to HSA control.
For B1, the “apical domain:HSA” value came to 374 ratio.
As to B2, the “apical domain:HSA” value stood at 211 ratio.
On the same count and under the same terms, the same measure for B3: 241 ratio; for B4: 235 ratio; for B5: 308 ratio.
Consider B6, for which the “apical domain:HSA” value stood at 186 ratio.
Regarding B7, the “apical domain:HSA” value worked out at 477 ratio.
The same measure, in the same setting: under B8 stands 394 ratio.
In the case of B9, the “apical domain:HSA” value is 191 ratio.
As for B10, the “apical domain:HSA” value amounted to 0.5 ratio.
In the case of B11, the “apical domain:HSA” value worked out at 338 ratio.
In the case of B12, the “apical domain:HSA” value worked out at 177 ratio.
For B13, the “apical domain:HSA” value is 231 ratio.
On the same count and under the same terms, the same measure for B14: 255 ratio; for B15: 76.7 ratio; for B16: 277 ratio.
On the same count and under the same terms, under B17 stands 292 ratio.
Consider B18, for which the “apical domain:HSA” value stood at 235 ratio.
The same measure, in the same setting: the same measure for B19: 1.8 ratio.
Take B20: the “apical domain:HSA” value is 253 ratio.
Same read-out and setting: the same measure for B21: 69.3 ratio; for B22: 191 ratio; for B23: 221 ratio.
In the case of B24, the “apical domain:HSA” value was found to be 162 ratio.
In the case of B25, the “apical domain:HSA” value is 104 ratio.
Same read-out and setting: the same measure for B26: 117 ratio; for B27: 184 ratio.
As to B28, the “apical domain:HSA” value was found to be 259 ratio.
For B29, the “apical domain:HSA” value is 114 ratio.
Same read-out and setting: under B30 stands 329 ratio; under B31, 308 ratio.
With B32, the “apical domain:HSA” value was determined as 160 ratio.

Another assay addresses T1, human CD71 extracellular domain. Briefly: solution ELISA screen (luminescence).
In turn, B1 yielded an RLU of 1.44e+06 RLU.
Take B2: the RLU is 4.88e+06 RLU.
With B3, the RLU was determined as 648000 RLU.
Consider B4, for which the RLU turned out to be 1.26e+06 RLU.
B5 came in with an RLU of 4.94e+06 RLU.
In turn, B6 had an RLU of 573000 RLU.
Molecule B7 showed an RLU of 4.07e+06 RLU.
The molecule B8 had an RLU of 4.3e+06 RLU.
With B9, the RLU turned out to be 1.1e+06 RLU.
B10 displayed an RLU of 2.39e+06 RLU.
The same measure, in the same setting: under B11 stands 4.51e+06 RLU; under B12, 368000 RLU; under B13, 3.94e+06 RLU.
B14 yielded an RLU of 772000 RLU.
B15 displayed an RLU of 2.07e+06 RLU.
The molecule B16 came in with an RLU of 5.4e+06 RLU.
B17 came in with an RLU of 610000 RLU.
As to B18, the RLU was 5.77e+06 RLU.
For the molecule B19, the RLU was 548000 RLU.
With B20, the RLU turned out to be 4.58e+06 RLU.
Regarding B21, the RLU was found to be 5.02e+06 RLU.
The molecule B22 had an RLU of 3.47e+06 RLU.
B23: the RLU amounted to 559000 RLU.
The molecule B24 registered an RLU of 802000 RLU.
The molecule B25 gave an RLU of 4.34e+06 RLU.
For B26, the RLU was found to be 418000 RLU.
Regarding B27, the RLU is 584000 RLU.
Still for that read-out and setting: under B28 stands 774000 RLU; under B29, 724000 RLU; under B30, 1.75e+06 RLU.
B31 displayed an RLU of 2.24e+06 RLU.
On the same count and under the same terms, under B32 stands 756000 RLU.

In the next assay the target is T2, CD71 apical domain. The assay can be described thus: solution ELISA screen (luminescence).
Turning to B1, the RLU worked out at 5.77e+06 RLU.
B2 displayed an RLU of 7.05e+06 RLU.
Same read-out and setting: under B3 stands 4.9e+06 RLU.
With B4, the RLU was 5.96e+06 RLU.
With B5, the RLU turned out to be 7.43e+06 RLU.
B6 displayed an RLU of 5.55e+06 RLU.
With B7, the RLU was found to be 7.41e+06 RLU.
The molecule B8 had an RLU of 7.51e+06 RLU.
B9 yielded an RLU of 6.11e+06 RLU.
B10 gave an RLU of 93200 RLU.
On to B11, for which the RLU was found to be 7.04e+06 RLU.
On to B12, for which the RLU amounted to 4.32e+06 RLU.
As to B13, the RLU is 7.13e+06 RLU.
Still for that read-out and setting: under B14 stands 5.61e+06 RLU; under B15, 5.84e+06 RLU.
For B16, the RLU turned out to be 7.34e+06 RLU.
For the molecule B17, the RLU came to 5.26e+06 RLU.
The same measure, in the same setting: the same measure for B18: 7.21e+06 RLU; for B19: 47500 RLU.
Same read-out and setting: the same measure for B20: 7.01e+06 RLU.
In the case of B21, the RLU was 7.08e+06 RLU.
Molecule B22 had an RLU of 7.21e+06 RLU.
B23 returned an RLU of 4.65e+06 RLU.
B24 came in with an RLU of 4.84e+06 RLU.
Regarding B25, the RLU was determined as 7.57e+06 RLU.
For the molecule B26, the RLU was 4.23e+06 RLU.
Molecule B27 came in with an RLU of 4.37e+06 RLU.
In turn, B28 had an RLU of 4.77e+06 RLU.
The molecule B29 yielded an RLU of 5.54e+06 RLU.
B30: the RLU was 5.93e+06 RLU.
With B31, the RLU amounted to 6.62e+06 RLU.
On to B32, for which the RLU came out at 5.45e+06 RLU.
